Test [1] concerns the target T1, Fc tagged human TNFR1 (Sino Biological) (human, UniProt P19438 22-211, limits assumed).
T1 construct: Bought reagent; also called hTNFR1; hTNFR1-Fc; not shown: Fc tag of the bought protein
T1 sequence (looked up): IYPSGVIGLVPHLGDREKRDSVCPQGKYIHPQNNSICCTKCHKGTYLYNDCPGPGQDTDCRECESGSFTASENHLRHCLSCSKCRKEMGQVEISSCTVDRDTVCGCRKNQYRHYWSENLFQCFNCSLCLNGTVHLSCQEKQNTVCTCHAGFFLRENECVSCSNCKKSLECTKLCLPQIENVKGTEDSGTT
As to the kind of experiment: SPR, Biacore single cycle kinetics, stability study, before freezing (t=0). The procedure:
(§1) Due to the limit in the number of available flow cells for analysis (three Fc per analysis, Fc2, Fc3 and Fc4, with Fc1 always being used as blank reference for non-specific subtraction), receptor binding was assessed in two separate overlapping runs using either: hTNFR1 (Fc2), hTNFR2 (Fc3) and mTNFR1 (Fc4), or; hTNFR1 (Fc2), […] and mTNFR2 (Fc4). Receptors were diluted in running buffer to a concentration of ˜4 μg/mL and at the start of each cycle loaded onto Fc2, Fc3 and Fc4 of a Protein A chip (GE Healthcare, Little Chalfont, UK) at a flow rate of 10 μL/min to give an RU of 40-100. The surface was then allowed to stabilise. Single cycle kinetic data was obtained at a flow rate of 45 μL/min. […] The association phase for the three injections of increasing concentrations of TNF was monitored for 240 seconds and a single dissociation phase was measured for 2700 seconds following the last injection of TNF. Regeneration of the Protein A surface was conducted using 10 mM glycine-HCl pH 1.5. The signal from the reference channel Fc1 (no receptor) was subtracted from that of Fc2, Fc3 and Fc4 to correct for differences in non-specific binding to a reference surface.
(§2) At day zero (prior to freezing) and following thawing on ice after 3 months and 1 year the following assays were performed: [0341] SDS-PAGE [0342] OD280 nm [0343] Single cycle Biacore for binding to hTNFR1, hTNFR2 and mTNFR1
(SPR reads the build-up and loss of mass on a sensor chip optically.)

Test [2] addresses T2, Fc tagged human TNFR2 (Sino Biological) (human, UniProt P20333 23-257).
T2 construct: Bought reagent; also called hTNFR2; hTNFR2-Fc; not shown: Fc tag of the bought protein
T2 sequence (looked up): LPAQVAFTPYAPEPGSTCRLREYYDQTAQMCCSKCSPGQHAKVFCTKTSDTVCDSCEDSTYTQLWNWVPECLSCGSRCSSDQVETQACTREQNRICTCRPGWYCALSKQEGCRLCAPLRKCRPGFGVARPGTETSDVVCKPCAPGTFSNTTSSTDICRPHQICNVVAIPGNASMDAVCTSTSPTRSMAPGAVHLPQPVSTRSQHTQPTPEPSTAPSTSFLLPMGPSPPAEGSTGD
The description is as above. The procedure: as §1, §2

Test [3] deals with T3, Fc tagged mouse TNFR1 (Sino Biological) (mouse, UniProt P25118 22-212, limits assumed).
T3 construct: Bought reagent; also called mTNFR1; mTNFR1-Fc; not shown: Fc tag of the bought protein
T3 sequence (looked up): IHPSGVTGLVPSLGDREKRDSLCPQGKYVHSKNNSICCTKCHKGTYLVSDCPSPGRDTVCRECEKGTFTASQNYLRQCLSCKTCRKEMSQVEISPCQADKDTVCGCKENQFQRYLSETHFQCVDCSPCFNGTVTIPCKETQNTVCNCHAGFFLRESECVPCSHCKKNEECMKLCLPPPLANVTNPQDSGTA
The description is as above. As to the method: as §1, §2

Test [4] concerns the target T1, Fc tagged human TNFR1 (Sino Biological). Kind of test: SPR, Biacore single cycle kinetics, stability study, after 1 year at -20° C. The procedure: as §1, §2
For test [5], the target named is T2, Fc tagged human TNFR2 (Sino Biological). The description is as above. As to the method:
as §1, §2

The target of test [6] is T3, Fc tagged mouse TNFR1 (Sino Biological). The description is as above. As to the method:
as §1, §2

Test [7] addresses T1, Fc tagged human TNFR1 (Sino Biological). Kind of test: SPR, Biacore single cycle kinetics, stability study, after 1 year at -80° C. The procedure: as §1, §2
The target of test [8] is T2, Fc tagged human TNFR2 (Sino Biological). The description is as above. The procedure:
as §1, §2

Test [9] addresses T3, Fc tagged mouse TNFR1 (Sino Biological). The description is as above. The procedure:
as §1, §2

The target of test [10] is T1, Fc tagged human TNFR1 (Sino Biological). As to the kind of experiment: SPR, Biacore T200 single cycle kinetics, receptor-Fc captured on Protein A chip, TNF 1.67-15 nM. As to the method:
(§3) Single cycle kinetic analysis was performed using a Biacore T200 (serial no. 1909913) running Biacore T200 Evaluation Software V2.0.1 (Uppsala, Sweden). All experiments were run at 25° C. with HBS-P+ running buffer (pH 7.4) (GE Healthcare, Little Chalfont, UK).
as §1

The target of test [11] is T2, Fc tagged human TNFR2 (Sino Biological). The test is described as above. As to the method: as §3, §1
The target in test [12] is T3, Fc tagged mouse TNFR1 (Sino Biological). The test is described as above. As to the method:
as §3, §1

B1: TNF mutein B2 (ligand)
chain: VRSSSRTPSDKPVAHVVANPQAEGQLQWLNRRANALLANGVELRDNQLVVPSEGLYLIYSQVLFKGQGCPSTHVLLTHTISRITASYSGKVNLLSAIKSPCQRETPEGAEAKPWYEPIYLGGVFQLEKGDRLSAEINRPDYLDFAESGQVYFGIIAL
notes: Human TNF mutein, TASYSG at positions 84-89; not shown: C-terminal FLAG tag and His6 tag from vector pANT65
What is called Kd is a measure of binding affinity in units of concentration. Read a low Kd as tighter binding. In the case of B1, the Kd came to 0.0175 nM in test [1]; 0.198 nM in [2]; 0.0624 nM in [3]; 0.039 nM in test [4]; 0.21 nM in [5]; 0.0851 nM in test [6]. In addition, the Kd amounted to 0.0407 nM in test [7]; 0.349 nM in [8]; 0.0864 nM in test [9]; 0.0164 nM in [10]; 0.315 nM in test [11]; 0.0256 nM in [12].

The values above are taken from patent US20220387557A1 (OXFORD UNIVERSITY INNOVATION, published 2022).
